Data on four molecules can be found in paper PMC11210774, “Critical domains for NACC2-NTRK2 fusion protein activation” (PLOS ONE, 2024).

In data set [1] the target is NACC2(Y86A)-NTRK2 (UniProt Q96BF6). As to the kind of experiment: non-reducing SDS-PAGE and immunoblot of multimers; HEK293T lysates in E1A buffer (250 mM NaCl, 50 mM HEPES, 5 mM EDTA, 0.1% NP-40); non-reducing sample buffer (4% SDS, 10 mM NaPO4 pH 7.0); immunoblot for NACC2 or NTRK2; multimer/monomer band ratio by ImageJ, three replicates. A general note: A western blot detects proteins with antibodies after separation by electrophoresis.

In data set [2] the target is NACC2-NTRK2(ex4:ex13) fusion protein (UniProt Q96BF6). Described as above.
Data set [3] concerns the target NACC2(D31N/R45Q)-NTRK2 (UniProt Q96BF6). The description is as above.
Data set [4] has the same target. As to the kind of experiment: co-IP; fusion protein co-expressed with NACC2 in HEK293T; E1A buffer; immunoprecipitation with antibodies against NTRK2 and Protein A-Sepharose at 4°C, immunoblot for NACC2; ratio of NACC2 to the co-immunoprecipitated fusion by ImageJ.
In data set [5] the target is NACC2(Y86A)-NTRK2 (UniProt Q96BF6). Described as above.
Data set [6] concerns the target NACC2-NTRK2(ex4:ex13) fusion protein (UniProt Q96BF6). Described as above.
Data set [7] concerns the molecule itself. As to the kind of experiment: non-reducing SDS-PAGE and immunoblot of multimers; HEK293T lysates in E1A buffer (250 mM NaCl, 50 mM HEPES, 5 mM EDTA, 0.1% NP-40); non-reducing sample buffer (4% SDS, 10 mM NaPO4 pH 7.0); immunoblot for NACC2 or NTRK2; multimer/monomer band ratio by ImageJ, three replicates.

Take “NACC2(Y86A)-NTRK2 (from UniProt Q96BF6 1-418; Q16620 397-822)”: the ratio of the multimer band to the monomer band with NACC2(Y86A)-NTRK2 [1] was determined as 12%. Turning to “NACC2-NTRK2(ex4:ex13) fusion protein (from UniProt Q96BF6 1-418; Q16620 397-822)”, in data set [2], the ratio of the multimer band to the monomer band came to 44%. Regarding “NACC2(D31N/R45Q)-NTRK2 (from UniProt Q96BF6 1-418; Q16620 397-822)”, in the data set with NACC2(D31N/R45Q)-NTRK2 [3], the ratio of the multimer band to the monomer band turned out to be 18%.

B1: Nucleus Accumbens-associated protein 2 (NACC2), wild type (natural protein, human, UniProt Q96BF6 1-587, looked up)
chain: MSQMLHIEIPNFGNTVLGCLNEQRLLGLYCDVSIVVKGQAFKAHRAVLAASSLYFRDLFSGNSKSAFELPGSVPPACFQQILSFCYTGRLTMTASEQLVVMYTAGFLQIQHIVERGTDLMFKVSSPHCDSQTAVIEDAGSEPQSPCNQLQPAAAAAAPYVVSPSVPIPLLTRVKHEAMELPPAGPGLAPKRPLETGPRDGVAVAAGAAVAAGTAPLKLPRVSYYGVPSLATLIPGIQQMPYPQGERTSPGASSLPTTDSPTSYHNEEDEEDDEAYDTMVEEQYGQMYIKASGSYAVQEKPEPVPLESRSCVLIRRDLVALPASLISQIGYRCHPKLYSEGDPGEKLELVAGSGVYITRGQLMNCHLCAGVKHKVLLRRLLATFFDRNTLANSCGTGIRSSTSDPSRKPLDSRVLNAVKLYCQNFAPSFKESEMNVIAADMCTNARRVRKRWLPKIKSMLPEGVEMYRTVMGSAAASVPLDPEFPPAAAQVFEQRIYAERRGDAATIVALRTDAVNVDLSAAANPAFDAGEEVDGAGSVIQEVAAPEPLPADGQSPPQPFEQGGGGPSRPQTPAAAARRPEGTYAGTL
notes: NACC2, human, wild type; gene bought from Origene and subcloned into pCDNA3 by EcoRI and XbaI; Expressed alone (multimerization assay) or together with the fusion proteins (co-IP); also called wild-type NACC2; native NACC2; source: HEK293T, transfected (pCDNA3, CaCl2), in lysate (E1A buffer)
Turning to B1, the ratio of NACC2 to the NACC2-NTRK2 fusion with which it was co-immunoprecipitated with NACC2(D31N/R45Q)-NTRK2 [4] stood at 45%; in the data set with NACC2(Y86A)-NTRK2 [5], 15%; in data set [6] it was 72%. Moreover, the “ratio of the multimer band to the monomer band” value in data set [7] amounted to 7%.
